B1: library; a variant is named by its letters at N, in order (parent)
chain: GCUGUCACCGGUGCUUGGUACGUUAUAUUCAGCCGGUCUGAUGAGUCUNNNNNNAGACGAAACAGC

The variants in data set [1] derive from B1. The data set is described as follows: FACS-Seq fitted mean relative fluorescence mCherry/BFP without ligand (log10 relative fluorescence); HEK293T overexpressing SLC46A1; higher = higher reporter protein expression. The following applies: without (6R,S)-folinic acid; ligand present: no. In short, it runs like this:
(§1)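 Fluorescence values are fitted normal means of bin counts along the mCherry/BFP axis. HEK293T libraries lentivirally carrying the ribozyme switch in an mCherry reporter, with an EF1α-BFP marker, were enriched, exposed to ligand or not for 48 h, and sorted into 6 bins. Genomic DNA per bin was PCR-amplified, barcoded and run on MiSeq. Means of log10(mCherry/BFP) were scaled to five spiked-in control ribozymes.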

The variants in data set [2] derive from B1. The data set can be described thus: normalized RNA/DNA level without ligand (relative to sTRSVctl = 100) (log10 (% of sTRSVctl)); HEK293T overexpressing SLC46A1; higher = less ribozyme self-cleavage, higher mRNA level. The following applies: without (6R,S)-folinic acid; ligand present: no. Summed up:
(§2)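 HEK293T cells were transfected with library plasmids carrying ribozyme switches linked to an mCherry reporter, or an eGFP reporter in some ligand experiments, at 4 µg per well of a 6-well plate, with any ligand added 1 h beforehand. After 72 h, total RNA was extracted with EDTA, reverse-transcribed, amplified, barcoded and sequenced. RNA level was defined as RNA reads over DNA reads, normalized to a spiked-in non-cleaving sequence or to the top-ranked sequences. That value was multiplied by 100 and converted to log10, the top set was 25 sequences, and only sequences with ≥100 DNA reads were retained.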

Data set [3] covers variants of B1. The data set is described as follows: FACS-Seq fitted mean relative fluorescence mCherry/BFP with ligand (log10 relative fluorescence); HEK293T overexpressing SLC46A1; ligand concentration (+) FACS-Seq: 6 mM; higher = higher reporter protein expression. To be noted: with (6R,S)-folinic acid; ligand present: yes. In short, it runs like this:
as §1

The variants in data set [4] derive from B1. The data set is described as follows: normalized RNA/DNA level with ligand (relative to sTRSVctl = 100) (log10 (% of sTRSVctl)); HEK293T overexpressing SLC46A1; ligand concentration (+) RNA-Seq: 6 mM; higher = less ribozyme self-cleavage, higher mRNA level. To be noted: with (6R,S)-folinic acid; ligand present: yes. In short, it runs like this:
as §2

± gives the standard deviation of the averaged measurements.

As for GCUGAU, the “FACS-Seq fitted mean (log10)” value in data set [1] was determined as 0.277 ± 0.044; in data set [3], 0.23 ± 0.0065. Also, the “normalized RNA/DNA level without ligand (log10)” value in data set [2] came out at 2.036 ± 0.0025. For the same variant, the “normalized RNA/DNA level with ligand (log10)” value in data set [4] worked out at 2.014 ± 0.019.
For the variant CCCUUC, the “FACS-Seq fitted mean (log10)” value in data set [1] was determined as 0.28 ± 0.13; in data set [3], 0.0122 ± 0.3. Moreover, the “normalized RNA/DNA level without ligand (log10)” value in data set [2] was found to be 2.141 ± 0.0043. Moreover, the “normalized RNA/DNA level with ligand (log10)” value in data set [4] turned out to be 2.05 ± 0.035.
For the variant CGAAAG, the results for the “FACS-Seq fitted mean (log10)” value in data set [1] and in data set [3] were -0.0838 ± 0.12 and 0.0563 ± 0.36, respectively. Also, the “normalized RNA/DNA level without ligand (log10)” value in data set [2] amounted to 1.9719 ± 0.00015. Further, the “normalized RNA/DNA level with ligand (log10)” value in data set [4] is 1.98 ± 0.027.
CGAAAA: the “FACS-Seq fitted mean (log10)” value turned out to be 0.189 ± 0.032 in data set [1] and 0.493 ± 0.17 in data set [3]. In addition, in data set [2], the “normalized RNA/DNA level without ligand (log10)” value was found to be 1.955 ± 0.014. In addition, the “normalized RNA/DNA level with ligand (log10)” value in data set [4] amounted to 1.98 ± 0.022.
For CCCCGA, the “FACS-Seq fitted mean (log10)” value in data set [1] was -0.3459 ± 0.0019; in data set [3] it was -0.64 ± 0.16. For the same variant, the “normalized RNA/DNA level without ligand (log10)” value in data set [2] is 2.028 ± 0.0046. In addition, the “normalized RNA/DNA level with ligand (log10)” value in data set [4] amounted to 2.02 ± 0.038.
On to ACCGAG, for which the “FACS-Seq fitted mean (log10)” value was found to be 0.326 ± 0.018 in data set [1] and 0.47 ± 0.072 in data set [3]. The “normalized RNA/DNA level without ligand (log10)” value in data set [2] amounted to 1.893 ± 0.018. Moreover, the “normalized RNA/DNA level with ligand (log10)” value in data set [4] amounted to 2.01 ± 0.024.
On the same counts, the results for ACCGAA are 0.0903 ± 0.11, -0.117 ± 0.18, 2.013 ± 0.0085 and 2.03 ± 0.043.
Regarding GCCGAA, the “FACS-Seq fitted mean (log10)” value in data set [1] is 0.247 ± 0.078; in data set [3], 0.486 ± 0.16. Further, the “normalized RNA/DNA level without ligand (log10)” value in data set [2] amounted to 2.011 ± 0.0054. Further, the “normalized RNA/DNA level with ligand (log10)” value in data set [4] worked out at 2.05 ± 0.022.
On to GCCGAG, for which the figures for the “FACS-Seq fitted mean (log10)” value in data set [1] and in data set [3] were 0.418 ± 0.066 and 0.538 ± 0.22, respectively. In data set [2], the “normalized RNA/DNA level without ligand (log10)” value worked out at 1.968 ± 0.005. For the same variant, in data set [4], the “normalized RNA/DNA level with ligand (log10)” value came to 2.016 ± 0.02.
Consider ACAUGG, for which the figures for the “FACS-Seq fitted mean (log10)” value in data set [1] and in data set [3] were 0.326 ± 0.041 and 0.203 ± 0.12, respectively. Also, the “normalized RNA/DNA level without ligand (log10)” value in data set [2] was found to be 1.916 ± 0.0031. Moreover, the “normalized RNA/DNA level with ligand (log10)” value in data set [4] stood at 2.04 ± 0.046.
Take CCUAAG: the “FACS-Seq fitted mean (log10)” value in data set [1] was determined as 0.536 ± 0.044; in data set [3] it was 0.332 ± 0.0073. Besides, the “normalized RNA/DNA level without ligand (log10)” value in data set [2] amounted to 1.9074 ± 0.0005. In addition, the “normalized RNA/DNA level with ligand (log10)” value in data set [4] stood at 2.002 ± 0.018.
In the case of CCUAAU, the results for the “FACS-Seq fitted mean (log10)” value in data set [1] and in data set [3] were 0.239 ± 0.0063 and 0.0269 ± 0.022, respectively. The “normalized RNA/DNA level without ligand (log10)” value in data set [2] turned out to be 2.041 ± 0.011. Besides, the “normalized RNA/DNA level with ligand (log10)” value in data set [4] was found to be 2.07 ± 0.067.
For UCCUUG, the “FACS-Seq fitted mean (log10)” value in data set [1] amounted to 0.0329 ± 0.028; in data set [3], 0.189 ± 0.026. Besides, the “normalized RNA/DNA level without ligand (log10)” value in data set [2] worked out at 1.85 ± 0.021. Also, the “normalized RNA/DNA level with ligand (log10)” value in data set [4] came to 1.99 ± 0.033.
Take ACGGGA: the “FACS-Seq fitted mean (log10)” value in data set [1] came out at 0.247 ± 0.026; in data set [3] it was 0.471 ± 0.17. For the same variant, the “normalized RNA/DNA level without ligand (log10)” value in data set [2] is 1.941 ± 0.0036. The “normalized RNA/DNA level with ligand (log10)” value in data set [4] stood at 2.01 ± 0.038.
GCUUAC: the “FACS-Seq fitted mean (log10)” value in data set [1] is 0.583 ± 0.13; in data set [3], 0.554 ± 0.32. In addition, in data set [2], the “normalized RNA/DNA level without ligand (log10)” value is 2.02 ± 0.026. For the same variant, the “normalized RNA/DNA level with ligand (log10)” value in data set [4] amounted to 2.01 ± 0.052.
For the variant GCUUAA, the “FACS-Seq fitted mean (log10)” value in data set [1] was found to be 0.522 ± 0.21; in data set [3], 0.5605 ± 0.0027. The “normalized RNA/DNA level without ligand (log10)” value in data set [2] was 1.9846 ± 0.00062. The “normalized RNA/DNA level with ligand (log10)” value in data set [4] came out at 2.01 ± 0.023.
With ACGACA, the “FACS-Seq fitted mean (log10)” value is -0.43 ± 0.011 in data set [1] and -0.351 ± 0.72 in data set [3]. In addition, the “normalized RNA/DNA level without ligand (log10)” value in data set [2] turned out to be 2.015 ± 0.0095. For the same variant, the “normalized RNA/DNA level with ligand (log10)” value in data set [4] is 2.045 ± 0.019.
Consider ACGACC, for which the entries for the “FACS-Seq fitted mean (log10)” value in data set [1] and in data set [3] were 0.728 ± 0.055 and 0.641 ± 0.33, respectively. For the same variant, the “normalized RNA/DNA level without ligand (log10)” value in data set [2] was found to be 2.066 ± 0.015. Besides, in data set [4], the “normalized RNA/DNA level with ligand (log10)” value came to 2.083 ± 0.02.

For the origin of these results see the supplement of paper PMC6757056.
